Results from patent US20200216522A1.
Where “and” joins values, the source holds several entries; their conditions need not be identical. Equal entries are not always repeated.

Tests used:
[1] = target: soluble Tau in control human brain lysate (human) (UniProt P10636); assay: ELISA on coated brain lysate, antibody 0.5 nM
[2] = target: soluble Tau in Alzheimer's disease human brain lysate (human) (UniProt P10636); assay: ELISA on coated brain lysate, antibody 0.5 nM
[3] = target: soluble Tau in control human brain lysate (human) (UniProt P10636); assay: ELISA on coated brain lysate, antibody 5 nM
[4] = target: soluble Tau in Alzheimer's disease human brain lysate (human) (UniProt P10636); assay: ELISA on coated brain lysate, antibody 5 nM

soluble Tau in control human brain lysate (human), sequence (P10636 other isoform, or with tags, fused parts or gaps limits assumed): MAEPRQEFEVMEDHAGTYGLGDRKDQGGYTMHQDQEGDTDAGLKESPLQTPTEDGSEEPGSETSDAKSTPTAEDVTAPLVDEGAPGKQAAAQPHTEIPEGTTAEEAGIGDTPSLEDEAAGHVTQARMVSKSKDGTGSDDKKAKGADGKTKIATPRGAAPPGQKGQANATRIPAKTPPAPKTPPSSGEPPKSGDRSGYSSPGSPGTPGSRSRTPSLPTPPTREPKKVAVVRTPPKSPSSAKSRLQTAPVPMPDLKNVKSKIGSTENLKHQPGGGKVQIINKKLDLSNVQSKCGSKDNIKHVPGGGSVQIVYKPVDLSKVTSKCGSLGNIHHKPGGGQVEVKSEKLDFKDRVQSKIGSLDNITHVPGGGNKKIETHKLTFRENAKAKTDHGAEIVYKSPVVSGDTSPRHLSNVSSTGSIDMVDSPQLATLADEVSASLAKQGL
soluble Tau in Alzheimer's disease human brain lysate (human), sequence (P10636 other isoform, or with tags, fused parts or gaps limits assumed): as above

ELISA signal [1]: 0.147 and 0.106 and 0.108
ELISA signal [2]: 0.108 and 0.117 and 0.115
ELISA signal [3]: 0.151 and 0.107 and 0.11
ELISA signal [4]: 0.108 and 0.107 and 0.117
Substance: anti-RSV antibody (negative control)
